B1: FJ1427_P035MP03C03 (VHH)
VHH: QVQLVESGGGLVQPGGSLRLSCAISGGTLDSYGIGWVRQAPGKQREGVSCMSRSDDRTYYADSVKGRFTISKDSAKNTVYLQMTSLKPEDTAVYYCAAVDAYGCSLVQPTTYDFWGLGTQVTVSS
notes: soluble VHH in periplasmic extract; also called 18-MP03C03; clone nr
B2: FJ1427 P035MP02A10 (VHH)
VHH: QLQLVESGGGLVQTGTSLRLSCAASGHTSRINAMGWFRQFPGKEREFVAAISRNGGSTVYVDSVKGRFTISRDNAKSTVYLQMNSLKPEDTAVYYCTATDAVGWTTRWMTADFGFWGQGTQVTVSS
notes: soluble VHH in periplasmic extract; also called clone nr
B3: FJ1427 P035MP02D10 (VHH)
VHH: EVQLVESGGGLVQAGGSLRLSCAASGRTFSSDAKAWFRQAPGKEREFVAAITWAGRGTDYADSVKDRFTITRDNAKNMVYLQMSSLKPEDTAVYYCALNPTGVIGPGFRNSNRYDYWGQGTQVTVAS
notes: as for B2
B4: FJ1427_P035MP03F08 (VHH)
VHH: EVQLVESGGGLVQTGGSLRLSCAASGGTFSRDAMAWFRQVPGKEREFVALISWSGATTNYADSVKGRFAISRDNGKNTVYLQMNRLKPADTAIYYCAADRRPMGSRSYFEPTEYDDWGQGTQVTVSS
notes: soluble VHH in periplasmic extract; also called 19-MP03F08; clone nr
B5: FJ1427_P035MP06F05 (VHH)
VHH: QVQLVESGGGLVQTGDSLRLSCAASGRSLDTTYIAWFRQAPGKERDFLAYISPRFSHTWYADSVKGRFTISRNIAKRTVDLEMNSLEPEDTAVYYCAAREHSGSTAWEHYDHWGQGTQVTVSS
notes: soluble VHH in periplasmic extract; also called 25-MP06F05; clone nr
B6: FJ1427_P035MP02A01 (VHH)
VHH: QVQLVESGGGLVQTGGSLRLSCVVSGSHFISDVMGWYRQVPGKQRELVADMADGGSAKYGDSVKGRFTILRDSVKNTVYLQMSSLNPEDTGVYYCKAGLWITGRHSDYWGQGTQVTVSS
notes: soluble VHH in periplasmic extract; also called clone nr; 97
B7: FJ1427 P035MP02E11 (VHH)
VHH: QVQLQESGGGLVQAGGSLRLSCAASGRTFSNYVMAWFRQAPGKEREFVGAITQTGRGTFYADSVEGRFTISRINDKNTVYLQMNSLKPEDTAVYYCSAPRSGRAGTRNQMDYEYWGQGTQVTVSS
notes: as for B2
B8: FJ1427_P035MP02C09 (VHH)
VHH: QVQLQESGGGLVQAGGSLRLSCVASGSVSSINGMAWYRQGADNQRVLVAAISRVGNTAYGDSVKGRFTISRQNARNTVYLQMNSLKPEDTAVYYCNADSWGGDDYWGQGTQVTVSS
notes: soluble VHH in periplasmic extract; also called 17-MP02C09; clone nr
B9: FJ1427_P035MP03F10 (VHH)
VHH: EVQLVESGGGLVQAGGSLRLSCAASGRDFSSYAMGWFRQAPGKEREFVVAITWTKRSTDFPDSVKGRFTISRDNAKNTVYLDMNSLKPEDTAVYYCASARGLPVTPLGDIIYWGEGTLVTVSS
notes: soluble VHH in periplasmic extract; also called 20-MP03F10; clone nr; 270
B10: FJ1427 P035MP06E05 (VHH)
VHH: QVQLVESGGELVQGGASLRLSCAASGRTFSNANMAWFRQAPEKEREFVALITWSSGSTLYADSVKGRFTISRDNARKMVYLQMNSLKPEDTAVYYCAADGPPYSGTYYRYDTYDYWGQGTQVTVSS
notes: soluble VHH in periplasmic extract; also called 24-MP06E05; clone nr; 517
B11: FJ1427_P035MP03F12 (VHH)
VHH: EVQLVESGGGLVQAGGSLRLSCAASGSIFSINAMAWFRQVPGMERELVAAISRDGGASVYRDSVKGRFTISRDNSKNTVYLQMNTLKPEDTAIYVCAATRAIGWTARWITTDFDFWGQGTQVTVSS
notes: soluble VHH in periplasmic extract; also called 22-MP03F12; clone nr

The term koff denotes the first-order rate constant of dissociation.

One test has as its target T1, human IL-2Rβ (human, UniProt P14784 27-240, limits assumed).
T1 construct: recombinant protein, coated or immobilised; also called hu IL-2R; IL-2R beta
T1 sequence: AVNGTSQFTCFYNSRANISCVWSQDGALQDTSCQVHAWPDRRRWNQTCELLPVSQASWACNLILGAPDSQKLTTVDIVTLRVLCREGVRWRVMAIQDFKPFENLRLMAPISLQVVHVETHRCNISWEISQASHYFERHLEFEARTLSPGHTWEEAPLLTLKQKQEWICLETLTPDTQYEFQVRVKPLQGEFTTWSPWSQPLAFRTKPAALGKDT
As to the kind of experiment: SPR, P.E. off-rate. Put shortly:
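First, the IL-2R protein is immobilised via amine coupling in acetate buffer to roughly 2500 RU on a CM5 sensor chip. Next, the VHH extract is loaded at 30 uL/min. Finally, dissociation is recorded for 120s.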
In general terms: SPR reads the build-up and loss of mass on a sensor chip optically.
B1 yielded a koff of 0.000594 s⁻¹.

Turning to B2, the koff was determined as 0.00226 s⁻¹.

With B3, the koff came out at 0.00109 s⁻¹.

In turn, B4 returned a koff of 0.000296 s⁻¹. Against the preceding molecule, the koff is about 3.7-fold lower.

Take B5: the koff came out at 0.000836 s⁻¹.

As for B6, the koff stood at 0.00023 s⁻¹.

B7 yielded a koff of 0.00188 s⁻¹.

Turning to B8, the koff stood at 0.000848 s⁻¹.

For B9, the koff is 0.000595 s⁻¹. The koff values of the last two molecules are within 1.5-fold of each other.

Molecule B10 displayed a koff of 0.000471 s⁻¹. This koff and that of the molecule before are within 1.5-fold of each other.

B11 displayed a koff of 0.000419 s⁻¹.

A further test deals with T1, human IL-2Rβ. The test can be described thus: P.E. ELISA, coated protein. Put shortly:
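Read-out: OD at 450 nm, specificity called versus negative controls. Receptor chains (human or mouse IL-2Rα, β, γ) were coated directly overnight at 4° C; 4% Marvel/PBS block 1 h; P.E. at 1:5 dilution in 1% Marvel/PBS incubated 1 h.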
For B1, the “P.E. binding ELISA OD” value was determined as 0.405 OD450 nm.

B2: the “P.E. binding ELISA OD” value came out at 0.359 OD450 nm.

B3: the “P.E. binding ELISA OD” value came to 0.557 OD450 nm.

B4: the “P.E. binding ELISA OD” value came out at 0.245 OD450 nm.

In the case of B5, the “P.E. binding ELISA OD” value amounted to 0.159 OD450 nm.

For B6, the “P.E. binding ELISA OD” value was determined as 0.311 OD450 nm.

As to B7, the “P.E. binding ELISA OD” value was 0.529 OD450 nm.

As to B8, the “P.E. binding ELISA OD” value worked out at 1.21 OD450 nm.

On to B9, for which the “P.E. binding ELISA OD” value was 0.497 OD450 nm.

In the case of B10, the “P.E. binding ELISA OD” value was determined as 0.355 OD450 nm.

In the case of B11, the “P.E. binding ELISA OD” value was 0.781 OD450 nm.

The record behind these values is patent publication US20240409645A1 (DUALYX, published 2024).
